Source: US6872537

Molecular target: microtubules prepared from bovine brain tubulin

Protein | ATPase activity (malachite green), stimulation by microtubules | maximal microtubule-stimulated ATPase rate | microtubule concentration at peak ATPase stimulation | microtubule severing, fluorescence microscopy assay
co-expressed baculovirus p60/p80 katanin heterodimer (both subunits with N-terminal His(6) tag) (protein) chain 1: HHHHHHMSVDEICENTKMGREYALLGNYETSLVYYQGVLQQIQKLLTSVHEPQRKHQWQTIRQELSQEYEHVKNITKTLNGFKSEPAAPEPAPNHGRAAPFSHHQHAAKPAAAEPARDPDVWPPPTPVDHRPSPPYQRAARKDPPRRSEPSKPANRAPGNDRGGRGPSDRRGDARSGGGGRGGARGSDKDKNRGGKSDKDKKAPSGEEGDEKKFDPAGYDKDLVENLERDIVQRNPNVHWADIAGLTEAKRLLEEAVVLPLWMPDYFKGIRRPWKGVLMVGPPGTGKTMLAKAVATECGTTFFNVSSASLTSKYHGESEKLVRLLFEMARFYAPSTIFIDEIDSICSKRGTGSEHEASRRVKSELLIQMDGVSGPSAGEESSKMVMVLAATNFPWDIDEALRRRLEKRIYIPLPEIDGREQLLRINLKEVPLADDIDLKSIAEKMDGYSGADITNVCRDASMMAMRRRIQGLRPEEIRHIPKEELNQPSTPADFLLALQKVSKSVGKEDLVKYMAWMEEFGSV chain 2: HHHHHHMATKRAWKLQELVAHSSNVNCLALGPMSGRVMVTGGEDKKVNLWAVGKQNCIISLSGHTSPVDSVKFNSSEELVVAGSQSGTMKIYDLEPAKIVRTLTGHRNSIRCMDFHPFGEFVASGSTDTNVKLWDVRRKGCIYTYKGHSDQVNMIKFSPDGKWLVTASEDTTIKLWDLTMGKLFQEFKNHTGGVTGIEFHPNEFLLASGSSDRTVQFWDLETFQLVSSTSPGASAVRSISFHPDGSYLFCSSQDMLHAFGWEPIRCFDTFSVFWGKVADTVIASTQLIGASFNATNVSVYVADLSRMSTTGIAQEPQSQPSKTPSGGAEEVPSKPLTASGRKNFVRERPHTTSSKQRQPDVKSEPERQSPTQDEGVKDDDATDIKDPDSYAKIFSPKTRVDHSPERNAQPFPAPLDVPGAQEPEPFKHPPKPAAAAAVAPVSRAPAPSASDWQPAQANPAPNRVPAATKPVPAQEVAPSRKPDPISTIIPSDRNKPANLDMDAFLPPAHAQQAPRVNAPASRKQSDSERIEGLRKGHDSMCQVLSSRHRNLDVVRAIWTAGDAKTSVESVVNMKDQAILVDILNIMLLKKSLWNLDMCVVVLPRLKELLSSKYENYVHTSCACLKLILKNFTSLFNQNIKCPPSGIDITREERYNKCSKCYSYLIATRGYVEEKQHVSGKLGSSFRELHLLLDQLE | this activity was stimulated ˜10-fold by microtubules | maximal microtubule-stimulated rate of 3 ATP/katanin/sec | peak at ˜2 µM tubulin | Both p60 and p60/p80 severed microtubules in this assay
baculovirus-expressed S. purpuratus katanin p60 subunit with N-terminal His(6) tag (protein) HHHHHHMSVDEICENTKMGREYALLGNYETSLVYYQGVLQQIQKLLTSVHEPQRKHQWQTIRQELSQEYEHVKNITKTLNGFKSEPAAPEPAPNHGRAAPFSHHQHAAKPAAAEPARDPDVWPPPTPVDHRPSPPYQRAARKDPPRRSEPSKPANRAPGNDRGGRGPSDRRGDARSGGGGRGGARGSDKDKNRGGKSDKDKKAPSGEEGDEKKFDPAGYDKDLVENLERDIVQRNPNVHWADIAGLTEAKRLLEEAVVLPLWMPDYFKGIRRPWKGVLMVGPPGTGKTMLAKAVATECGTTFFNVSSASLTSKYHGESEKLVRLLFEMARFYAPSTIFIDEIDSICSKRGTGSEHEASRRVKSELLIQMDGVSGPSAGEESSKMVMVLAATNFPWDIDEALRRRLEKRIYIPLPEIDGREQLLRINLKEVPLADDIDLKSIAEKMDGYSGADITNVCRDASMMAMRRRIQGLRPEEIRHIPKEELNQPSTPADFLLALQKVSKSVGKEDLVKYMAWMEEFGSV | p60 alone displayed a microtubule-stimulated ATPase activity | – | peak at ˜2 µM tubulin | Both p60 and p60/p80 severed microtubules in this assay
